According to the DeepSol protein solubility set:

Test: soluble on expression in E. coli; label from the status in PepcDB or PDB records

Row | Sequence | soluble on expression in E. coli
1 | MSVTVEQEAYEMPADNKKVMLKIEEVHLHSCGVFSNVYKGILREPYEKKIAIKKSWPEKGERNFEFIFLTGRERAKHKNVIHMIFAFSHSYDTKVCESYVFDFMPNTLAEVIRQKLTDLDIRLYTWQIFSGLKYLEEHKVVHRDLKPVNILVDHDTAFLKISDFGSAKIIVKGKANNFYQVTRFYRPPELLMKAMEYNSTVDVWSAGCIMAEMVKRHVVFPGRDSAHQLKLYCRCFGAPNEQDISAMKGEKLEKEYWKFTKGFGLQRLVNDISPDQLQFIKRILVYAPEKRLRGKQLLQDDFFRPLFKAGAVRHNGQKISDVITAADYKRAAENEESSACRLAQLVKTDNKDLGIPYCEKSNSYENVYARRSTLIPKEQKMARDNKSKEDSSDDRRVAPSSGEAPSAPGKRSESNKTAAIAKKSTMKSVMNAPPPRQKPE | not soluble
2 | MGHHHHHHSHMEKSELKPAGVFHFFNEICQVPRPSKKEEKMIAYLKAFGEKHNLETKVDEAGNVLIKKPATPGKENLKTVILQSHVDMVCEKNNDTDHDFLTDPIETEIDGEWMKAKGTTLGADNGIGVATELAILADDSIEHGPIECLFTVDEETGLTGAFALKEGFMSGEILLNLDSEDEGELYIGCAGGIDTVAEFQYENEMTPISHLCFRITVKGLKGGHSGGDIHLGRGNANKILNRFLYQMMTTYQEDFHLYEFNGGNLRNAIPREASAVFSVPEHYKHDIRTALNVFTAEIENELHRVEPDLNILLETEPHRDWSIDSSTSYRLITSLYGCPHGVYAMSQDIPGLVETSTNLASVKMKPENTIRIETSQRSSILSSRDDIATTVRAVFRLAGAQVNWGEGYPGWKPNPDSEILKVAEESYKRLFGVDAKVKAIHAGLECGLFLDKYPALDMISFGPTLTGVHSPDERMHIPSVDKFWKHLLDVLAHIPAKN | soluble
3 | MSLSELSVLSAETAISFHEMDLEILKESQKALREEAGGKEEVEETVENPNPIVFIAVDDQNLPNGEEEDSFIFEKLQFRVKQVMENGTRRVYLSVQATTPAEWQLLVQLRIKTGCQSNILNVVDKDVYKFDSFSYPLNVEIQNSDVKFLKFEMRVLNLMYLDLPTFEEGDEVIEFDDGSRIRVHSNILSLLSDYLGKSEKEYASRTDCPAIKATCSEKEAFLELLYQAYPTRRPIFASFRRLTAGAVGYKCDNLIYQLSKHLIDYNYRPMTFLQRFQAAIENRLEPAISELAFRAALDGTWNQMIQSGFEPENFCGRQVYTKIVCPAILLARNAKPDATTLKKPENNLKFIELEEGDTTKSAILFRGTIFYINSGILAAHGKEMLCIGQNGEYIARYTAEFHRECARGDLIPGEVLVQLLTYMHPMGEVPHPDMIRACIVFAFDHGWNIVKENLENEFEPPITPDEYMSQLMFGDKFDLKNLLRVNIQRAESSCRELAEVLERHGKLKILKDRTHEGIMDRMCSGWGLNPMVNRLSTRFPTTFHHRTVNLQRGKAVVVGEGRAVDTLNSLASDHAFGEPTELIVVD | not soluble
4 | MGSDKIHHHHHHMERTDDESNKQPVILPPMIRIAYCTPSLHIPGGVERVLTTKANYLAENGNYDIYILLTDGKGKPPCYTLSPKVKIIQLDIDFEELWELPLWKKVPVYLKKQRIYRRKLSAALSHLKPDITVSLLRREINFITSLKDGSKKIGELHVNRKNYRNFEKNESNFIKELFAKLWMKSLVRHLKKLDKFVVLSEEDRANWPELQNVKVISNPLPFQSGTFSDLNNKRITAAGRYTYQKGFDLLLEAWSKICNRHPDWELHIYGKGNKTTYQVLAGKWKLKNLFLENATPDMLCKYHESSIFVSSSRFEGFGMVIAEAMACGVPAVSFACPCGPKDIIRDGEDGLLVENGKTEELAEKINYLIENEQIRKEMGKKARINVQRFAEDVIMQQWIQLFNNLLNGTKQ | not soluble
5 | MGSDKIHHHHHHMLVLNNLQKKFTNSKMVLNNVNAKFRSGSINCIVGVNGAGKTTLLNIISSILMPTKGDVYLNSESIFENSTLKKEIFYTPVNPFFYENLSAKDNLYLICSLYNRKIDQITIEKTIKDVGLNIEDLNIPVYNFSSGMKQKLNFASMLLVDSNVLLLDEPFNALDHVAQKNFTRILKGLVSKEKIIIFTSHLPNTILELSENIYLLKDGCFTDKRKAQSFNQTTLETWLLESQKEVIPYEEK | not soluble
6 | MVGRELFKPVPSSTKPQSNASILARFRTAKSRHQPDRRGAQISANDRKSFVTRETPRTDSCFVSERLAMDDLVQIARCAGGKSVLRLTGVCLLTLLFAIASPAHSTHRPVDDLADVDLQLILAVDVSPSMSKVEQKVQRDGYVGAFRHADIARALKSGERGRIAVLYLEWAGPRQQTVVMPWTIVESLDDALILADRLAALPLTEGRGTSISGALSAAHALFAKSGLRSPRRVIDVSGDGPNNAGLPLQLVHDALTTGGVTINGLAISLRAADTLDSFGPHFIELYYESCVIGGSNAFVVTVENTADFANAIRKKLVNEIAGLSAKVQPATYRSHSRPVVLEHHHHHH | soluble
7 | MSNIITDYSQYNEKQLHNFLNSIEKQLLKAERDKNKAIKKIQECELQERMIRQVLAQKHSQEKEPTPSLLNTIASKDDPEYDVSFGDFNDFLQIAKQERERHNA | not soluble
8 | MTAMPRIAFLASPAEPAVAARARLVQRYGDHALHDADIVCALGGDGFMLQTLHRHGAADKPVFGMKLGSVGFLMNQYRDDEDDLLARLQRAEPAHLRPLEMLVQTESGTSAGSLAYNEVSLLRQTRQAAHLSVDLNGQTRIAELIGDGVMVATPAGSTAYNYSAHGPILPLGSHTLALTPIAPYRPRRWRGAILKADTEVRFRVLDPYKRPVSVTADSHEIRDVVEVTIRESTERRVTLLFDPEHNLEERIFSEQFAVLEHHHHHH | not soluble
9 | MGSDKIHHHHHHMGDSMSLDWDKLRIFHAAAEAGSFTHAADKLHLSQSAISRQVSSLEQDVGIKLFHRHARGLILTEQGEMLYRTAHDVLMKLESVKAQLSETTDKPSGKLRITTTVGLGQGWLTDKIQEFMSLYPEIQVQLILDNEELDVNMRHADCAIRLRQPQQSDLIQRKLFTVHMHVYAAPSYINKYGEPQSLDDLDNHRIITFGEPAPNYLLDVNWLEIAGRDSDNPRISHLQINSQTSIKRACLLGIGIAMLPDYIVGRDPGLIQLPISADIPSFDTYFCYPDELKNAAKLKVFRDYIVAKARNWNF | not soluble
10 | MAVYRNVQVNFWQDDFVLDLTPEERYFYVYLLTCSKTTQCGIFPFPKRLAEMETGYNRETVDKLVQRFVDYGKILYDADTRELFVLNWLRYNPVTNTNVEKCVLRELKSVKNKEFVHMFLQKCVEEELNVPMLLAHFGMPSDLAVDDVEPVCEETEAEEEVIEEETGSRVFSFYEQHFGSLSPFAVEELSAWMEDLSEELVLKALQIAFENNKRTVAYVKGILRGWHGKGFTKVCEVEADTAKFRKKESSVSTGETEEFLARCEEWEKNAPSEEELQRFLAERGWRP | not soluble
11 | MGSDKIHHHHHHMNDNAERRYRRPSYRITLDEQDITPRINGRLIRLRLRSQRGLEADQLDLTLSDHDGALALPRRGVSLRVAYGWQDDGLIDKGLFTVDEVQHSGTPDQITIRARSADMRGRLPGKRSRSWHDITVGEIIDTIAKRHTLEPVVGDTVRGIRIGHIDQTEESDLNFLTRLGERFDAVATVKAARLLFTQAGEALTASGLAMPSVTLTRRDGDRHRYSATDRDTYTGVIAYWNDKANAKRQRVIAGSDEDAKELRPTYATEADALDAAKAEWRRVQRGEATFKITLAYGRADILPESPLTASGFKPDIDATPWLVTEVEDSLDDNGFGTRVQCEVRGGAAET | not soluble
12 | GSHMASMTGGQQMGRGSEFRSMTAIEDILQITTDPSDTRGYSLLKSEEVPQGSTLGVDFIDTLLLYQLTENEKLDKPFEYLNDCFRRNQQQKRITKNKPNAESLHSTFQEIDRLVIGYGVVALQIENFCMNGAFINYITGIVSNVNSYTDFLSQIIQRAILEGTALDLLNAVFPTLLEYCNKHVSHFDLNESVIYNNVLTIFELFVTFKPIAEIFTKIDGFFADYSCKPQDFERKTILGPILSLSPIEAAVAIRNYGDNLLRSKQQTAMIHESLQAEHKVVIDRLFFIVDKLVRGSLNSRTDMISYFAHIANKNHLRRADHPPFKELSSNGFMSNITLLLVRFSQPFLDISYKKIDKIDANYFNNPSLFIDLSGETRLNSDFKEADAFYDKNRKTADSKPNFISDCFFLTLTYLHYGLGGTLSFEEKMGSEIKALKEEIEKVKKIAANHDVFARFITAQLSKMEKALKTTESLRFALQGFFAHRSLQLEVFDFICGASTFLIRVVDPEHEFPFKQIKLPLIPDQIGVENVDNADFLRAHAPVPFKYYPEFVVEGPVNYSLYISKYQTSPIFRNPRLGSFVEFTTMVLRCPELVSNPHLKGKLVQLLSVGAMPLTDNSPGFMMDIFEHDELVNKNLLYALLDFYVIVEKTGSSSQFYDKFNSRYSISIILEELYYKIPSYKNQLIWQSQNNADFFVRFVARMLNDLTFLLDEGLSNLAEVHNIQNELDNRARGAPPTREEEDKELQTRLASASRQAKSSCGLADKSMKLFEIYSKDIPAAFVTPEIVYRLASMLNYNLESLVGPKCGELKVKDPQSYSFNPKDLLKALTTVYINLSEQSEFISAVAKDERSFNRNLFVRAVDILGRKTGLASPEFIEKLLNFANKAEEQRKADEEEDLEYGDVPDEFLDPLMYTIMKDPVILPASKMNIDRSTIKAHLLSDSTDPFNRMPLKLEDVTPNEELRQKILCFKKQKKEEAKHKASE | soluble
13 | MGSDKIHHHHHHVSATISDLDRLLVAIAAIPTPWKEWPGGYPGRLDLALVDAVMSIRFRYGRERKDGSWTGARGAVLRYQAYSDHVAPAEKMKNLANQDPIALERILNRQKVHSGKTKACAIVEAAQRFLAIDVTEPAHLRPDDAEHRAQYTGVSGLGPVTWEYFTMLLSHDGVKADTWIRRFVERSVQRNVSSDEAGALIKEAANKLDVRETKLDYAVWNYASTTRLETMPKLS | not soluble
14 | MEETVDQAANSRTISLPISRVRLIMKSSPDVSCINQDALFLTTKATELFVQHLALSSYENGPSKDTNTLSYSDLADTVEETETFQFLTDILPKKILARDYLKTLEEMEKEDDNM | not soluble
15 | MGSDKIHHHHHHMSNTDKYYRDRSHITGKLDLQKLPKAIREKQYGIDVREAMAQTAEAIAGVQSTAQKFNQDTKNQVNQLDEKYTREIRAIVLGDTTSVATPPIQEPNSEASNPLSNLYETARGQVLYDFVKQSSLTKVSKIGVIGDSVAATAGGFPDILAHQYNIYVENLSVGGAKMSDYNHDAIVNQASRLQQCDVVIIQGTDDDWVHDISLGYAGDTNIKTYLGGLRETIKRVKNNNPKAKLIVVNCTRQCVDVHGKYRTEQSKNTFGLTLIDYMEAQKKYLNQQDVPYVDLMKPTSIFEPDNPAFKKTMMHDGLHPTPEAHQYIVQEIAKDYSYYYDK | not soluble
16 | MERVNVVGAGLAGSEAAWTLLRLGVPVRLFEMRPKRMTPAHGTDRFAEIVCSNSLGGEGETNAKGLLQAEMRRAGSLVMEAADLARVPAGGALAVDREEFSGYITERLTGHPLLEVVREEVREIPPGITVLATGPLTSEALAEALKRRFGDHFLAYYDAASPIVLYESIDLTKCFRAGRYGQSADYLNCPMTEEEYRRFHQALLEAQRHTPHDWEKLEFFEACVPVEELARRGYQTLLFGPMKPVGLVDPRTGKEPFAVVQLRQEDKAGRMWSLVGFQTGLKWPEQKRLIQMIPGLENAEIVRYGVMHRNTYLNAPRLLGETLEFREAEGLYAAGVLAGVEGYLESAATGFLAGLNAARKALGLPPVAPPEESMLGGLVRYLATANPEGFQPMYANWGLVPPVEGRMGKKEKRQAMYRRGLEAFSAWLSGLNPPLPRPEAALV | soluble
17 | DTFIGWEPEVTHKKYFAMLDTISQVQGVPEPIIEAVAPLFFANNADQVHPELVASFKQSLESLTGERAVEVARIGRMVFGRRDVIEDAEKFALPTLIAVGREDKPRPVFESYLMHDCITGSELVEIPEAGHISSLEQPEFVNQMLLSFLNKVHA | not soluble
